# Results: publication PMC6524640 (2019)
# No end group written: not given here.
# Target: calmodulin (Homo sapiens, UniProt P0DP23)
# Experiment: NMR titration
row,Kd [mM],Binder
1,1.44,HFGKTGSSGPLQ (not fully specified) [CEACAM1 short form peptide SFWT]
2,0.76,HFGKTGRASDQR (not fully specified) [CEACAM1 long form peptide LFWT]
